Usually Km stands for the concentration of substrate that gives half-maximal velocity. What is called kcat is the maximal rate divided by the concentration of active sites. In general, kcat/Km refers to the turnover number divided by the Michaelis constant.

We go through five molecules from paper PMC3034952 (Enzyme Research, 2011).

First the molecules themselves.
T1: Arabidopsis thaliana pyruvate dehydrogenase-kinase (AtPDK), wild type, bacterial two-hybrid fusion in pBT (Arabidopsis thaliana, UniProt Q9SBJ1 1-366)
T1 sequence (looked up): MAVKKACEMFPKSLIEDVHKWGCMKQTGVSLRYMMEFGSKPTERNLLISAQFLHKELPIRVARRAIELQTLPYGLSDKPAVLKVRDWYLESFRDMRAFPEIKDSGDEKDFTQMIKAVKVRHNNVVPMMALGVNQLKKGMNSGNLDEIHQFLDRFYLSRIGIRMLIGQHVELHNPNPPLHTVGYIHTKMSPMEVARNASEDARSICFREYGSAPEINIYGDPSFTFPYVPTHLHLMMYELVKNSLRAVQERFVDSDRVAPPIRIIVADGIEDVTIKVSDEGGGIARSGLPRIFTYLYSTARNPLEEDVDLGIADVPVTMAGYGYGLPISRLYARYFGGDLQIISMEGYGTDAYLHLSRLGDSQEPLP

B1: AtPDC E1 (AtE1; recombinant alpha2beta2 pyruvate dehydrogenase) (Arabidopsis thaliana) (protein)
chain 1: SAAFSRLISTDTTPITIETSLPFTAHLCDPPSRSVESSSQELLDFFRTMALMRRMEIAADSLYKAKLIRGFCHLYDGQEAVAIGMEAAITKKDAIITAYRDHCIFLGRGGSLHEVFSELMGRQAGCSKGKGGSMHFYKKESSFYGGHGIVGAQVPLGCGIAFAQKYNKEEAVTFALYGDGAANQGQLFEALNISALWDLPAILVCENNHYGMGTAEWRAAKSPSYYKRGDYVPGLKVDGMDAFAVKQACKFAKQHALEKGPIILEMDTYRYHGHSMSDPGSTYRTRDEISGVRQERDPIERIKKLVLSHDLATEKELKDMEKEIRKEVDDAIAKAKDCPMPEPSELFTNVYVKGFGTESFGPDRKEVKASLP
chain 2: AAGAKEMTVRDALNSAIDEEMSADPKVFVMGEEVGQYQGAYKITKGLLEKYGPERVYDTPITEAGFTGIGVGAAYAGLKPVVEFMTFNFSMQAIDHIINSAAKSNYMSAGQINVPIVFRGPNGAAAGVGAQHSQCYAAWYASVPGLKVLAPYSAEDARGLLKAAIRDPDPVVFLENELLYGESFPISEEALDSSFCLPIGKAKIEREGKDVTIVTFSKMVGFALKAAEKLAEEGISAEVINLRSIRPLDRATINASVRKTSRLVTVEEGFPQHGVCAEICASVVEESFSYLDAPVERIAGADVPMPYAANLERLALPQIEDIVRASKRACYRSK
notes: co-expressed in E. coli with GroE; alpha2beta2 heterotetramer, Mr 160,000
B2: AtPDC E1 (AtE1; recombinant alpha2beta2 pyruvate dehydrogenase) (Arabidopsis thaliana; P52901:G297D) (protein)
chain 1: B1 chain 1 with G280D
chain 2: B1 chain 2
notes: as for B1
B3: AtPDC E1 (AtE1; recombinant alpha2beta2 pyruvate dehydrogenase) (Arabidopsis thaliana; P52901:D295A) (protein)
chain 1: B1 chain 1 with D278A
chain 2: B1 chain 2
notes: as for B1
B4: AtPDC E1 (AtE1; recombinant alpha2beta2 pyruvate dehydrogenase) (Arabidopsis thaliana; P52901:D295N) (protein)
chain 1: B1 chain 1 with D278N
chain 2: B1 chain 2
notes: as for B1
B5: AtPDC E1α, wild type, bacterial two-hybrid fusion in pTRG (enzyme, Arabidopsis thaliana, UniProt P52901 1-389, looked up)
chain: MALSRLSSRSNIITRPFSAAFSRLISTDTTPITIETSLPFTAHLCDPPSRSVESSSQELLDFFRTMALMRRMEIAADSLYKAKLIRGFCHLYDGQEAVAIGMEAAITKKDAIITAYRDHCIFLGRGGSLHEVFSELMGRQAGCSKGKGGSMHFYKKESSFYGGHGIVGAQVPLGCGIAFAQKYNKEEAVTFALYGDGAANQGQLFEALNISALWDLPAILVCENNHYGMGTAEWRAAKSPSYYKRGDYVPGLKVDGMDAFAVKQACKFAKQHALEKGPIILEMDTYRYHGHSMSDPGSTYRTRDEISGVRQERDPIERIKKLVLSHDLATEKELKDMEKEIRKEVDDAIAKAKDCPMPEPSELFTNVYVKGFGTESFGPDRKEVKASLP

Numbering of substitutions follows the chain as printed. Numbers in names are those of the source.

Substrate in one data set: CC(=O)C(=O)O
The data set can be described thus: purified protein. The data set is classed as biochemical, Arabidopsis thaliana. Conditions: 1.8 μM K3Fe(CN)6 as electron acceptor, 30°C, labelled compound.
For the molecule B1, the Km worked out at 45 ± 18 µM, the kcat came to 159 ± 14 s⁻¹ and the kcat/Km is 3.5e+06 M⁻¹ s⁻¹.

With B2, the Km came to 66 ± 24 µM, the turnover number (kcat) was determined as 70 ± 7 s⁻¹ and the kcat/Km is 1e+06 M⁻¹ s⁻¹.

Consider B3, for which the Km is 178 ± 108 µM, the catalytic constant (kcat) came out at 52 ± 12 s⁻¹ and the kcat/Km was found to be 300000 M⁻¹ s⁻¹.

B4: the Km was found to be 257 ± 144 µM, the kcat was found to be 38 ± 10 s⁻¹ and the catalytic efficiency (kcat/Km) is 100000 M⁻¹ s⁻¹.

In another data set the target is T1, Arabidopsis thaliana pyruvate …. Kind of data set: two-hybrid; bacterial two-hybrid (BacterioMatch I, Stratagene): AtPDK in pBT, E1α constructs in pTRG, cotransformed into the E. coli reporter strain; quantified by β-galactosidase activity with o-nitrophenyl-β-D-galactoside. Conditions: partners not purified.
Take B5: the “β-galactosidase reporter activity (100% of WT)” value is 3 μmol min^−1 1.0 A600^−1.
